Results published in publication PMC10397247.
Blank lines part the entries; values can stand above or below the binder they belong to.

What was measured:
4H4001-bA = target: T1, 4H4001-bA; test: two-hybrid library CCNG1;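 also: natural log of median RNA to DNA barcode read ratio; higher means stronger binding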
T1 chain: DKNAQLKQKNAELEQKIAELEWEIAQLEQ

4H918-bA = target: T2, 4H918-bA; test: two-hybrid library CCNG1;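 also: natural log of median RNA to DNA barcode read ratio; higher means stronger binding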
T2 chain: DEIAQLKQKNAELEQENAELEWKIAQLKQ

4H967-bA = target: T3, 4H967-bA; test: two-hybrid library CCNG1;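 also: natural log of median RNA to DNA barcode read ratio; higher means stronger binding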
T3 chain: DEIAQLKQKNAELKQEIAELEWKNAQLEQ

4H568-bA = target: T4, 4H568-bA; test: two-hybrid library CCNG1;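 also: natural log of median RNA to DNA barcode read ratio; higher means stronger binding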
T4 chain: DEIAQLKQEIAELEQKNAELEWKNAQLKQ

4H953-bA = target: T5, 4H953-bA; test: two-hybrid library CCNG1;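 also: natural log of median RNA to DNA barcode read ratio; higher means stronger binding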
T5 chain: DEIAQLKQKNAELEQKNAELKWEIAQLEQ

4H797-bA = target: T6, 4H797-bA; test: two-hybrid library CCNG1;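 also: natural log of median RNA to DNA barcode read ratio; higher means stronger binding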
T6 chain: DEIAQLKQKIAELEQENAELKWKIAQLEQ

4H3843-bA = target: T7, 4H3843-bA; test: two-hybrid library CCNG1
T7 chain: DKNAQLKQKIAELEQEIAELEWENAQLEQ

4H462-bA = target: T8, 4H462-bA; test: two-hybrid library CCNG1
T8 chain: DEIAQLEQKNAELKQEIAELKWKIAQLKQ

4H607-bA = target: T9, 4H607-bA; test: two-hybrid library CCNG1
T9 chain: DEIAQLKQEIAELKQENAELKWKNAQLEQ

4H687-bA = target: T10, 4H687-bA; test: two-hybrid library CCNG1
T10 chain: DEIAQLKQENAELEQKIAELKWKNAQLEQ

4H72-bA = target: T11, 4H72-bA; test: two-hybrid library CCNG1
T11 chain: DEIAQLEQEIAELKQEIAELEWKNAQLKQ

4H883-bA = target: T12, 4H883-bA; test: two-hybrid library CCNG1
T12 chain: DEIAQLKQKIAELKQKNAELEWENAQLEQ

O8-bA = target: T13, O8-bA; test: two-hybrid library CCNG1
T13 chain: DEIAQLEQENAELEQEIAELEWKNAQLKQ

O9-bA = target: T14, O9-bA; test: two-hybrid library CCNG1
T14 chain: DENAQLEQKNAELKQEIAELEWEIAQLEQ

O7-bA = target: T15, O7-bA; test: two-hybrid library CCNG1
T15 chain: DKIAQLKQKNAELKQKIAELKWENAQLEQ

4H780-AA = target: T16, 4H780-AA; test: two-hybrid library CCmax; conditions: mean of both orientations
T16 chain: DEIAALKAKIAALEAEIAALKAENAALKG

4H797-AA = target: T17, 4H797-AA; test: two-hybrid library CCmax
T17 chain: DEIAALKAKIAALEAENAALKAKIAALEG

4H906-AA = target: T18, 4H906-AA; test: two-hybrid library CCmax; conditions: mean of both orientations
T18 chain: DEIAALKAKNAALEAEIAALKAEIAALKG

4H881-AA = target: T19, 4H881-AA; test: two-hybrid library CCmax; conditions: mean of both orientations
T19 chain: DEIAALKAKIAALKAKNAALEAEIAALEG

4H953-AA = target: T20, 4H953-AA; test: two-hybrid library CCmax; conditions: mean of both orientations
T20 chain: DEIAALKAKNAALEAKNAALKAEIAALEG

4H993-AA = target: T21, 4H993-AA; test: two-hybrid library CCmax; conditions: mean of both orientations
T21 chain: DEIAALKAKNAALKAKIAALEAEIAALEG

4H717-AA = target: T22, 4H717-AA; test: two-hybrid library CCmax
T22 chain: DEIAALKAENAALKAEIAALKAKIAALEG

4H883-AA = target: T23, 4H883-AA; test: two-hybrid library CCmax; conditions: mean of both orientations
T23 chain: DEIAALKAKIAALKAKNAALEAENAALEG

4H918-AA = target: T24, 4H918-AA; test: two-hybrid library CCmax; conditions: mean of both orientations
T24 chain: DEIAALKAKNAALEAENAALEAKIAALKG

4H967-AA = target: T25, 4H967-AA; test: two-hybrid library CCmax; conditions: mean of both orientations
T25 chain: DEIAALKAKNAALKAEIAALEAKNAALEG

4H794-AA = target: T26, 4H794-AA; test: two-hybrid library CCmax; conditions: mean of both orientations
T26 chain: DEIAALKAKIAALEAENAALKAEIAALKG

4H406-AA = target: T27, 4H406-AA; test: two-hybrid library CCmax; conditions: mean of both orientations
T27 chain: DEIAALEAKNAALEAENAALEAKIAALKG

4H688-AA = target: T28, 4H688-AA; test: two-hybrid library CCmax; conditions: mean of both orientations
T28 chain: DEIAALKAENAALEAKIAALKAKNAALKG

4H963-AA = target: T29, 4H963-AA; test: two-hybrid library CCmax; conditions: mean of both orientations
T29 chain: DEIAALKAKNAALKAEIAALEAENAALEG

4H376-AA = target: T30, 4H376-AA; test: two-hybrid library CCmax
T30 chain: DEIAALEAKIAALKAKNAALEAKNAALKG

4H687-bN = target: T31, 4H687-bN; test: two-hybrid library CCNG1
T31 chain: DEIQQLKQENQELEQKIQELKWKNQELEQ

4H717-bA = target: T32, 4H717-bA; test: two-hybrid library CCNG1
T32 chain: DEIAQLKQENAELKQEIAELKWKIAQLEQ

4H3855-bA = target: T33, 4H3855-bA; test: two-hybrid library CCNG1
T33 chain: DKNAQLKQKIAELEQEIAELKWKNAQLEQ

4H3782-bA = target: T34, 4H3782-bA; test: two-hybrid library CCNG1
T34 chain: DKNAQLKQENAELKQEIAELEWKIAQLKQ

4H454-bA = target: T35, 4H454-bA; test: two-hybrid library CCNG1
T35 chain: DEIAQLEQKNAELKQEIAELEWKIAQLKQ

4H908-bA = target: T36, 4H908-bA; test: two-hybrid library CCNG1
T36 chain: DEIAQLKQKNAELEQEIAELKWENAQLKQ

4H3855-bH = target: T37, 4H3855-bH; test: two-hybrid library CCNG1
T37 chain: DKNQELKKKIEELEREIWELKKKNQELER

4H462-bN = target: T38, 4H462-bN; test: two-hybrid library CCNG1
T38 chain: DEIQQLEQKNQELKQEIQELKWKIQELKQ

4H754-bA = target: T39, 4H754-bA; test: two-hybrid library CCNG1
T39 chain: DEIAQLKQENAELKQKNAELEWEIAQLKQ

Binder: DEIAALKAENAALKAEIAALKAKIAALEG [4H717-AA]
interaction score (4H780-AA): -1.38 | interaction score (4H797-AA): -1.4 | interaction score (4H906-AA): -1.19 | interaction score (4H881-AA): -1.15 | interaction score (4H953-AA): -1.87 | interaction score (4H993-AA): 0.0522 | interaction score (4H717-AA): 1.89 | interaction score (4H883-AA): -1.82 | interaction score (4H918-AA): -1.34 | interaction score (4H967-AA): -0.559 | interaction score (4H794-AA): -1.37

Binder: DEIAALEAKIAALKAKNAALEAKNAALKG [4H376-AA]
interaction score (4H406-AA): -0.774 | interaction score (4H688-AA): -1.96 | interaction score (4H963-AA): -1.33 | interaction score (4H376-AA): -1.28

Binder: DKNAQLKQENAELKQEIAELEWKIAQLKQ [4H3782-bA]
interaction score (4H687-bN): 0.761 | interaction score (4H4001-bA): 0.27 | interaction score (4H717-bA): -0.182 | interaction score (4H3855-bA): 0.312 | interaction score (4H918-bA): -1.34 | interaction score (4H3782-bA): 1.29 | interaction score (4H454-bA): 1.64 | interaction score (4H967-bA): 0.0169 | interaction score (4H568-bA): -1.41 | interaction score (4H953-bA): -1.07 | interaction score (4H797-bA): 0.173 | interaction score (4H908-bA): -1.42 | interaction score (4H3843-bA): 1.18 | interaction score (4H3855-bH): 0.603 | interaction score (4H462-bN): 1.22 | interaction score (4H462-bA): 0.962 | interaction score (4H607-bA): -0.58 | interaction score (4H687-bA): 0.572 | interaction score (4H754-bA): -0.898 | interaction score (4H72-bA): -0.987 | interaction score (4H883-bA): 0.21

Other lines, results leading:

interaction score (4H4001-bA): -0.268 | interaction score (4H918-bA): -1.1 | interaction score (4H967-bA): -1.25 | interaction score (4H568-bA): -1.79 | interaction score (4H953-bA): -1.38 | interaction score (4H797-bA): -0.879 | interaction score (4H3843-bA): -0.878 | interaction score (4H462-bA): -0.841 | interaction score (4H607-bA): -0.651 | interaction score (4H687-bA): -0.85 | interaction score (4H72-bA): 0.286 | interaction score (4H883-bA): -1.14
Binder: DKNAQLKQKIAELEQEIAELEWENAQLEQ [4H3843-bA]

interaction score (O8-bA): 1.39 | interaction score (O9-bA): 0.339 | interaction score (O7-bA): 0.795
Binder: DKNAQLKQKIAELKQENAELEWKIAQLKQ [O6-bA]
